PMC3915751

System: T1, BaeR (Erwinia amylovora Ea1189 (primers from CFBP1430 genome)), ORF:3df56c72
T1 sequence: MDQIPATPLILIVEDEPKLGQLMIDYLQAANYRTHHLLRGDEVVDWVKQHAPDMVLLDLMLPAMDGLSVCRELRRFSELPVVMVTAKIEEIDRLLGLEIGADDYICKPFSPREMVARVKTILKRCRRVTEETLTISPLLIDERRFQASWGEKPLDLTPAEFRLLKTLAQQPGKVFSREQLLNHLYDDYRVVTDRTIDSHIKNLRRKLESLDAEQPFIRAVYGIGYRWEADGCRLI
Assay: EMSA
Details: 50 mM Tris-HCl pH 7.5, 1 mM DTT, 500 mM MgCl2, 100 mM EDTA, 10 mM NaCl ([…], room temperature 30 min

Row | Sequence | binding
1 | TGGCTGGCAACACTGAAGCCGCCCAGGCTCAGGCCGATGAGTAAAGGGAGCAGTTTGTTCATTTGCATTCCTTGTAGTGCAGCAAAATTGTTATGGTAGCGTTGACGCAGACCAAAAATTGTCGCCGATGATAGCAGAGACTCCGGATCAGGTAAGTTGGCTGAAAGTGCCATCCTCCTTTTAATTTACTTAAATACTTCATCAAGAACCAGACATCCGGCTGATTACTATTGAACTAAACGTTTTCGCCATTATTTCAGGAGATACAGTGATGACCGCAGTGACCAATTA (double strand) [tolC upstream region (291 bp)] | no binding
2 | TGTTTGGTATTTCGTGCCATAGCGGTATGATTTACAACGCTTCAGACTTACATACATTTGCGAATGTATGTACTATAGCACGACTAAAATTTAAACGCAGCAGTGGGTTTGTAATCCATTGAACAATCGATATCGGACATTCGAGGTTTATTTATGAACAAAAACAGAGGGTTAACGCCTCTGGCGGCCGTTCTGATGCTTTCAG (double strand) [acrAB upstream region (205 bp)] | binds more weakly
